Numbering of substitutions follows the chain as printed. Names may count otherwise.
T1: MBP-GFP-ORC1 wild type, full length (human, UniProt Q13415 1-861)
T1 sequence (looked up): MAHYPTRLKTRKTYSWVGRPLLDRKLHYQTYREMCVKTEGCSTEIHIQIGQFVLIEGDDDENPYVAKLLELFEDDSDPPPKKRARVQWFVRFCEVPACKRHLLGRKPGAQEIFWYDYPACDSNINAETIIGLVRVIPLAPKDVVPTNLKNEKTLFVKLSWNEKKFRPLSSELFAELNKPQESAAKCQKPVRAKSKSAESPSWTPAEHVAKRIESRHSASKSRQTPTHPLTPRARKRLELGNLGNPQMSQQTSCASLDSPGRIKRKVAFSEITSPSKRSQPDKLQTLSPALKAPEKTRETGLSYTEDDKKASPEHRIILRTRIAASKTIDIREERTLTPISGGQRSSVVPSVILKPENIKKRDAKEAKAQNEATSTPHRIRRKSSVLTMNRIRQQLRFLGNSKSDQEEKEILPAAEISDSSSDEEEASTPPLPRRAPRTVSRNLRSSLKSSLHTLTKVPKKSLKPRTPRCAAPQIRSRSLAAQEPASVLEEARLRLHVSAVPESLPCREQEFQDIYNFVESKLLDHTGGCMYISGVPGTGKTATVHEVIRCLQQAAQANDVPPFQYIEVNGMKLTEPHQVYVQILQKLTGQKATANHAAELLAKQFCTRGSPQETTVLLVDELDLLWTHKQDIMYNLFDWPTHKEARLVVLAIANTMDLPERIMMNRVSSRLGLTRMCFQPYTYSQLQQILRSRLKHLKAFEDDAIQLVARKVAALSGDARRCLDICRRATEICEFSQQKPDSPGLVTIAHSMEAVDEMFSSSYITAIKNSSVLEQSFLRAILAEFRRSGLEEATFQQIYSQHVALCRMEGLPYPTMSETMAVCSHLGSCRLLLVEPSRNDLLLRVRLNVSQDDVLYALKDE

T2: GST-CDC6 wild type, full length (human, UniProt Q99741 1-560)
T2 sequence (looked up): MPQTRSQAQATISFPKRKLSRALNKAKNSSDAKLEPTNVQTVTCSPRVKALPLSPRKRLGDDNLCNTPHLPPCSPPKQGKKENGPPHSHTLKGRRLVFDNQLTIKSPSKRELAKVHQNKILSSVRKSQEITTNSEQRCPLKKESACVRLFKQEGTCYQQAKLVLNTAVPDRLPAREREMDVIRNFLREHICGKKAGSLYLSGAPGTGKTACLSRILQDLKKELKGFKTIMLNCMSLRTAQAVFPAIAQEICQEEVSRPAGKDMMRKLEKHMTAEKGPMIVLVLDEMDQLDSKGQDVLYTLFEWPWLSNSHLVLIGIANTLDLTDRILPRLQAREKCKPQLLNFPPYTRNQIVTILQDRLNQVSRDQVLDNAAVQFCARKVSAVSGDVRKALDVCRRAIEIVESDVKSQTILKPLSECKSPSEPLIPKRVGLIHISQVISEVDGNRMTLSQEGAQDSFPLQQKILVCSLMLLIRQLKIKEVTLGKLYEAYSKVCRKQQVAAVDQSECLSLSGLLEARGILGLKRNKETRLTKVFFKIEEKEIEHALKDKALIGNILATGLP

T3: MBP-GFP-ORC1-HIS6 (human, UniProt Q13415 1-861)
T3 sequence (looked up): T1 sequence (looked up)

B1: MBP-ORC1 R105Q, R720Q (natural protein, human, UniProt Q13415 1-861, looked up)
chain: T1 sequence (looked up) with R105Q, R720Q
B2: MBP-ORC1 R720Q (natural protein, human, UniProt Q13415 1-861, looked up)
chain: T1 sequence (looked up) with R720Q
B3: MBP-ORC1^235ARA^237 (MBP-ORC1 A-A), full length (natural protein, human, UniProt Q13415 1-861, looked up)
chain: T1 sequence (looked up) with K235A, L237A
B4: MBP-ORC1 R105Q (natural protein, human, UniProt Q13415 1-861, looked up)
chain: T1 sequence (looked up) with R105Q
B5: MBP-ORC1 180–240 (domain or fragment, human, UniProt Q13415 180-240, looked up)
chain: QESAAKCQKPVRAKSKSAESPSWTPAEHVAKRIESRHSASKSRQTPTHPLTPRARKRLELG
B6: MBP-ORC1 100–250 wild type (domain or fragment, human, UniProt Q13415 100-250, looked up)
chain: RHLLGRKPGAQEIFWYDYPACDSNINAETIIGLVRVIPLAPKDVVPTNLKNEKTLFVKLSWNEKKFRPLSSELFAELNKPQESAAKCQKPVRAKSKSAESPSWTPAEHVAKRIESRHSASKSRQTPTHPLTPRARKRLELGNLGNPQMSQQ
B7: MBP-ORC1 100–250 L237A (domain or fragment, human, UniProt Q13415 100-250, looked up)
chain: B6 chain with L138A
B8: GST-CDC6-HIS6 (natural protein, human, UniProt Q99741 1-560, looked up)
chain: T2 sequence (looked up)
B9: MBP-CDC6-HIS6 (natural protein, human, UniProt Q99741 1-560, looked up)
chain: T2 sequence (looked up)

target: T1, MBP-GFP-ORC1 wild type, full length; test: pull-down

Binding result, binds:
B1
B2
B3
B4

target: T2, GST-CDC6 wild type, full length; test: pull-down

Binding result, binds:
B5
B6
B7

target: T3, MBP-GFP-ORC1-HIS6; test: pull-down

Binding result, binds:
B8
B9
